Legend:
Assay in all cases: cell-based or functional assay
[1] = target: HA of ca A/Panama/2007/99 (H3N2) (influenza A virus)
[2] = target: HA of A/California/07/2009 (H1N1) (influenza A virus)
[3] = target: HA of B/Yamanashi/166/98 (yamagata) (influenza B virus)
[4] = target: HA of B/Florida/4/2006 (yamagata) (influenza B virus)
[5] = target: HA of B/Ohio/1/2005 (victoria) (influenza B virus)
[6] = target: HA of A/Shan dong/9/93 (H3N2) (influenza A virus)
[7] = target: HA of A/Victoria/3/75 (H3N2) (influenza A virus)
[8] = target: HA of ca B/Beijing/243/97 (victoria) (influenza B virus)
[9] = target: HA of A/Solomon Island/3/2006 (H1N1) (influenza A virus)
[10] = target: HA of A/Beijing/262/95 (H1N1) (influenza A virus)
[11] = target: HA of B/Sichuan/379/99 (yamagata) (influenza B virus)
[12] = target: HA of A/Hong Kong/8/68 (H3N2) (influenza A virus)
[13] = target: HA of B/Malaysia/2506/2004 (victoria) (influenza B virus)
[14] = target: HA of B/Hong Kong/330/2001 (victoria) (influenza B virus)
[15] = target: HA of A/Wilson Smith N/33 (H1N1) (influenza A virus, UniProt P03454 18-565)
Chain of HA of A/Wilson Smith N/33 (H1N1) (P03454 18-565 limits assumed): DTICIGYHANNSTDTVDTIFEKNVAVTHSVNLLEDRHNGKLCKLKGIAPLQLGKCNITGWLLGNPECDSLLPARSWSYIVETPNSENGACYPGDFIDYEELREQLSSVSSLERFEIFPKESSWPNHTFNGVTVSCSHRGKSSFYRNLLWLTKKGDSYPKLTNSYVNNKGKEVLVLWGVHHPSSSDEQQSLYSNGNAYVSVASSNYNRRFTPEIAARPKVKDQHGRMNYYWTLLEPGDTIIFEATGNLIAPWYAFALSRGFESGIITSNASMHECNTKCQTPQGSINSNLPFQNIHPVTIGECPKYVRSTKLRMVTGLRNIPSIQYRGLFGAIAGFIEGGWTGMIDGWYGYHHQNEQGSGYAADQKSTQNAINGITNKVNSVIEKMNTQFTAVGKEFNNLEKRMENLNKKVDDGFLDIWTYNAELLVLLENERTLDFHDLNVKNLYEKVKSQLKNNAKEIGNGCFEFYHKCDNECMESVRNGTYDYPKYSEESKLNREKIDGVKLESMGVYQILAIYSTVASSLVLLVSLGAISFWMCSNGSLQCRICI

Binder	Neutralization (IC50) [1] [nM]	Neutralization (IC50) [2] [nM]	Neutralization (IC50) [3] [nM]	Neutralization (IC50) [4] [nM]	Neutralization (IC50) [5] [nM]	Neutralization (IC50) [6] [nM]	Neutralization (IC50) [7] [nM]	Neutralization (IC50) [8] [nM]	Neutralization (IC50) [9] [nM]	Neutralization (IC50) [10] [nM]	Neutralization (IC50) [11] [nM]	Neutralization (IC50) [12] [nM]	Neutralization (IC50) [13] [nM]	Neutralization (IC50) [14] [nM]	Neutralization (IC50) [15] [nM]
FY1/39 BiS4 100/44 (bispecific antibody) light: DIQMTQSPSSLSASVGDRVTITCRTSQSLSSYLHWYQQKPGKAPKLLIYAASSLQSGVPSRFSGSGSGTDFTLTISSLQPEDFATYYCQQSRTFGQGTKVEIKRTVAAPSVFIFPPSDEQLKSGTASVVCLLNNFYPREAKVQWKVDNALQSGNSQESVTEQDSKDSTYSLSSTLTLSKADYEKHKVYACEVTHQGLSSPVTKSFNRGEC heavy: not shown	152	8.2	0.9	3.6	5.6	12.8	26.4	5.8	3.9	20.2	8.2	10.6	27.6	69.3	10.6
GL20/39FTL BiS4 43/105 (bispecific antibody) light: DIQMTQSPSSLSASVGDRVTITCRTSQSLSSYTHWYQQKPGKAPKLLIYAASSRGSGVPSRFSGSGSGTDFTLTISSLQPEDFATYYCQQSRTFGQGTKVEIKRTVAAPSVFIFPPSDEQLKSGTASVVCLLNNFYPREAKVQWKVDNALQSGNSQESVTEQDSKDSTYSLSSTLTLSKADYEKHKVYACEVTHQGLSSPVTKSFNRGEC heavy: not shown	35.5	20.8	1.1	4.2	17.5	22.2	14.9	23.5	3.8	11.8	8.7	6.3	16.2	164	9.6
FY1/39 BiS4 43/105 (bispecific antibody) light: DIQMTQSPSSLSASVGDRVTITCRTSQSLSSYLHWYQQKPGKAPKLLIYAASSLQSGVPSRFSGSGSGTDFTLTISSLQPEDFATYYCQQSRTFGQGTKVEIKRTVAAPSVFIFPPSDEQLKSGTASVVCLLNNFYPREAKVQWKVDNALQSGNSQESVTEQDSKDSTYSLSSTLTLSKADYEKHKVYACEVTHQGLSSPVTKSFNRGEC heavy: not shown	52.7	7.1	0.6	1.6	5.4	20.4	6.5	2.6	2.6	10.9	3.5	4	12.6	19.1	4.3
FBD94 IgG (antibody, V domains shown) VH: EVQLVESGGGLVQPGRSLRLSCAVSGFIFEDYAINWVRQAPGKGLEWVSIISWDSGRIGYADSVRGRFTISRDNAKNSSFLQMNSLRPEDTAVYYCVKDMLAYYYDGSGIRYNLYGMDVWGQGTTVTVSS VL: EIVLTQSPATLSLSPGERATLSCRASRSITTFLAWYQQKPGQAPRLLIYDASNRATGVPARFSGSGSGTDFTLTINSLEPDDFAIYYCQQRDHWPPIFGQGTRLEIK	> 1000	> 1000	0.1	0.1		> 1000	> 1000	0.1	> 1000	> 1000	0.2	> 1000	0.1	0.1	> 1000
